Measurements as given in patent publication US20230331848A1 (BIOSION, published 2023).
Numbering of substitutions follows the chain as printed. Each block holds one binder with its values, some of them ahead of it.

How the values were obtained:
[1] = biological target: T1, full length mouse PD-1 expressed on 293F-mouse PD-1 cells (mouse, UniProt Q02242 25-288); test: cell-based blocking FACS: 293F-mouse PD-1 cells incubated with antibody, then with mouse PD-L1-hFc (blocked ligand), detected with anti-human IgG Fc-PE; unit from the axis 'Con of mAb, nM.'
T1 construct: also called cell surface mouse PD-1
T1 sequence: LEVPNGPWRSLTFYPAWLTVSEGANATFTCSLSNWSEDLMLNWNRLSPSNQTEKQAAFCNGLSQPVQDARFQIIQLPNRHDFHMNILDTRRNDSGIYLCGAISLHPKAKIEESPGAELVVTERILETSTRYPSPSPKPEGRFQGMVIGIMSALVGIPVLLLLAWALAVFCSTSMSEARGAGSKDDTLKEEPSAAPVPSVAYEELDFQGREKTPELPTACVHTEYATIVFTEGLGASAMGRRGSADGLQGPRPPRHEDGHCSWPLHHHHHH
Experimental: Briefly, 293F-mouse PD-1 cells were harvested from cell culture flasks, washed twice and re-suspended in PBS containing 2% v/v Fetal Bovine Serum (FACS buffer). Then, 1×10⁵ cells per well in 96 well-plates were incubated in 100 μL of the anti-PD-1 antibodies or controls at various concentrations (starting at 80 nM with a 3-fold serial dilution) in FACS buffer for 40 minutes at 4° C. […] The plates were washed twice with FACS buffer, and then added and incubated for 40 minutes at 4° C. in dark with 100 μl/well R-Phycoerythrin AffiniPure Goat Anti-Human IgG, Fcγ fragment specific (1:1000 dilution in FACS buffer, Cat#:109-115-098, Jackson Immunoresearch). Cells were washed twice and re-suspended in FACS buffer. Fluorescence was measured using a Becton Dickinson FACS Canto II-HTS equipment. Data was analyzed using Graphpad Prism software and IC₅₀ values were reported.

[2] = biological target: T2, recombinant mouse PD-1-his protein (Cat#:50124-M08H, Sino Biological Inc) (mouse, UniProt Q02242 25-167); test: indirect ELISA on coated mouse PD-1-his; unit from the axis 'Con of mAb, nM.'
T2 construct: Bought protein used in Biacore and indirect ELISA; not shown: his tag
T2 sequence (looked up): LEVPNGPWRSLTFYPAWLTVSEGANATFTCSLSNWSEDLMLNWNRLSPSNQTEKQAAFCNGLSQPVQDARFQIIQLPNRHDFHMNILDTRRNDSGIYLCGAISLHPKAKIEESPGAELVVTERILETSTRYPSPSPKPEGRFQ
Experimental: Briefly, 96-well micro plates were coated with 100 μl 2 μg/ml mouse PD-1-his (Cat#:50124-M08H, Sino Biological Inc) or 2 μg,/ml cynomolgus PD-1-his (Cat#:PD1-05223, Acro biosystems Inc.) in carbonate/bicarbonate buffer (pH 9.6) for 2 hours at 37° C. Plates were washed once with wash buffer (PBST, PBS+0.05% Tween-20) and then blocked with 200 μl blocking buffer (5% w/v non-fatty milk in PBST) for 2 hours at 37° C. […] ELISA plates were washed 4 times and incubated with Peroxidase AffiniPure goat anti-mouse IgG, Fcγ Fragment Specific (1:5000 dilution in PBST buffer, Cat#:115-035-071, Jackson ImmunoResearch Laboratories, Inc., 100 μl/well) or Peroxidase AffiniPure F(ab′)₂ Fragment Goat Anti-Human IgG, Fcγ fragment specific (Cat#:109-036-098, Jackson ImmunoResearch, for the controls) for 40 minutes at 37° C. After a final wash, plates were incubated with 100 μl/well TMB (Cat#:TMB-S-002, innoreagents) at room temperature. The reaction was stopped 3-10 minutes later with 50 μl/well 1M H₂SO₄, and the absorbance was read on a microplate reader using dual wavelength mode with 450 nm for TMB and 630 nm as the reference wavelength. Then the OD (450-630) values were plotted against antibody concentrations. Data was analyzed using GraphPad Prism software and EC₅₀ values were reported.

[3] = biological target: T3, in house made human PD-1-Fc protein (human, biotin-labeled (sites not given)); test: competitive ELISA: biotin human PD-1-Fc + antibody on coated human PD-L1-Fc (competitor)
T3 construct: also called biotin-labeled human PD-1-Fc
Experimental: Briefly, 100 μl human PD-L1-Fc protein (prepared in-house with SEQ ID NO: 28) at 2 μg/mL in carbonate/bicarbonate buffer (pH 9.6) was coated on 96-well micro plates overnight at 4° C., Plates were washed with wash buffer (PBS+0.05% w/v Tween-20, PBST), and blocked with 5% w/v non-fatty milk in PBST for 2 hours at 37° C. […] After incubation at 37° C. for 40 minutes, plates were washed using wash buffer. […] Plates were washed again using wash buffer. Finally, TMB was added and the reaction was stopped using 1M H₂SO₄. The absorbance was read on a microplate reader using dual wavelength mode with 450 nm for TMB and 630 nm as the reference wavelength, then the OD (450-630) values were plotted against antibody concentrations. Data was analyzed using Graphpad Prism software and IC₅₀ values were reported.

[4] = biological target: T1, full length mouse PD-1 expressed on …; test: cell-based binding FACS on 293F-mouse PD-1 cells (MFI); unit from the axis 'Con of mAb, nM.'
Experimental: The binding activities of the mouse anti-PD-1 antibodies to mouse PD-1s expressed on cell surface were tested by flow cytometry (FACS), using Biosion in-house prepared 293F-mouse PD-1 cells expressing full length mouse PD-1 (SEQ ID NO.: 27) on cell membrane. The 293F-mouse PD-1 cells were prepared by transfecting 293F cells with a PCMV-T-P plasmid inserted with mouse PD-1 coding sequence between EcoR I and XbaI sites, following the instruction of lipofectamine 3000 transfection reagent (Thermo Fisher).
(§1) In specific, the 293F-mouse PD-1 cells and GS-J2/PD-1 cells were respectively harvested from cell culture flasks, washed twice and re-suspended in PBS containing 2% v/v Fetal Bovine Serum (FACS buffer). Then, 2×10⁵ cells per well were incubated in 96 well-plates with 100 μl of the anti-PD1 antibodies or controls at various concentrations for 40 minutes on ice. […] Following an incubation of 40 minutes at 4° C. in dark, cells were washed three times and re-suspended in FACS buffer. Fluorescence was measured using a Becton Dickinson FACS Canto II-HTS equipment and plotted against antibody concentrations. Data was analyzed using GraphPad Prism software and EC₅₀ values were reported.

[5] = biological target: T4, human PD-1 expressed on GS-J2/PD-1 cells (Genscript) (human, UniProt Q15116 25-288); test: flow cytometry on GS-J2/PD-1 cells
T4 construct: whole, on cells; also called cell-surface human PD-1
Experimental: as §1
For the cell-based binding FACS, R-Phycoerythrin AffiniPure Goat Anti-human IgG Fcγ fragment specific (Cat#:109-115-098, Jackson ImmunoResearch) was used for the humanized antibodies, with 1:1000 dilution in FACS buffer, 100 μl/well.

IC50 [1]: 6.86 nM
EC50 [2]: 0.185 nM
IC50 [3]: 0.37 nM
EC50 [4]: 1.27 nM
EC50 [5]: 0.44 nM
B1: mouse anti-PD-1 monoclonal antibody E1A9C8A7 (antibody, V domains shown)
VH: QVQLQQSGAEVVRPGVSVRISCKGSGYTFSDYVMHWMKQSHGESLEWIGVISTYHIPAVYNQKFKGKATMTVDKSSSTVYLELARLTSEDSAIYYCAREVYGDSYYFDVWGAGTTVTVSS
VL: DVLMTQIPLSLPVSLGDQVSISCRSSQSIVHSNGNTYLEWYLQKPGQSPKLLIYKVSNRFSGVPDRFSGSGSGTDFTLKISRVEAEDLGVYYCFQGSHVPYTFGGGTKLEIK
notes: Hybridoma-derived mouse mAb purified on Protein A; also called Mouse E1A9C8A7

IC50 [1]: 2.49 nM
EC50 [2]: 0.34 nM
EC50 [4]: 0.87 nM
B2: mouse anti-PD-1 monoclonal antibody E2G4E10B7 (antibody, V domains shown)
VH: QVQLQQSGAELVRPGVSVKISCKGSGYTFTDYVMHWVRQSHAKSLEWIGVISTHFGDGVYNQKFKGKATMTVDKSSSTAYMELARLTSEDSAIYYCAREVYGDSWYFDVWGAGTTVTVSS
VL: B1 VL with I7T, V19A, I29L, N33D, V83L
notes: Hybridoma-derived mouse mAb; also called Mouse E2G4E10B7
